Experimental data from patent publication US20130005646A1 (Novo Nordisk, published 2013).
Starred links: 1 amine or outer side, 2 acyl side, 3 side chain; linkers in the order of their positions; H or OH if unused. Positions of bridges follow the written chain, without caps; N, C: chain ends. *: point of attachment. C20 diacid = O=C(O)CCCCCCCCCCCCCCCCCCC(=O)*; 19‑carboxyheptadecanoyl = not defined here; γGlu = O=C(O)[C@H](CCC(=O)[*:2])N[*:1]; AEEA = NCCOCCOCC(=O)O

T1: human amylin 3(a) receptor (human calcitonin receptor + RAMP-3) (human, UniProt P30988 25-474; O60896 24-148)
T1 sequence (looked up) 1: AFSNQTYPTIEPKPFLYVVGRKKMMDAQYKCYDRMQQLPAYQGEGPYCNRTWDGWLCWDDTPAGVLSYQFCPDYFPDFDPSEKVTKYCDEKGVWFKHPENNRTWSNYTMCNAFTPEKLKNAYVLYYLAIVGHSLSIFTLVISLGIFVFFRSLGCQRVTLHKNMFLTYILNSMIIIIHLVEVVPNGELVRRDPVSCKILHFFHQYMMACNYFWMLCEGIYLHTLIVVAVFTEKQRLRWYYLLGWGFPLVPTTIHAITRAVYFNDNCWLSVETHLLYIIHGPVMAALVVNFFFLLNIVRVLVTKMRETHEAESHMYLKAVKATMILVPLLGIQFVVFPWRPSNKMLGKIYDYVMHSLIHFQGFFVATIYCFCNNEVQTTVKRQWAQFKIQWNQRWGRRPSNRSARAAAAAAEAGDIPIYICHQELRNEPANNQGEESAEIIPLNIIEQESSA
T1 sequence (looked up) 2: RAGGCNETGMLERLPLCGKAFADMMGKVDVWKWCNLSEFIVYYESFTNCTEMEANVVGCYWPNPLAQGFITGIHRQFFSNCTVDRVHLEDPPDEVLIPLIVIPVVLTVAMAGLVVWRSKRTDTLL

T2: human calcitonin (a) receptor (human, UniProt P30988 25-474)
T2 sequence (looked up): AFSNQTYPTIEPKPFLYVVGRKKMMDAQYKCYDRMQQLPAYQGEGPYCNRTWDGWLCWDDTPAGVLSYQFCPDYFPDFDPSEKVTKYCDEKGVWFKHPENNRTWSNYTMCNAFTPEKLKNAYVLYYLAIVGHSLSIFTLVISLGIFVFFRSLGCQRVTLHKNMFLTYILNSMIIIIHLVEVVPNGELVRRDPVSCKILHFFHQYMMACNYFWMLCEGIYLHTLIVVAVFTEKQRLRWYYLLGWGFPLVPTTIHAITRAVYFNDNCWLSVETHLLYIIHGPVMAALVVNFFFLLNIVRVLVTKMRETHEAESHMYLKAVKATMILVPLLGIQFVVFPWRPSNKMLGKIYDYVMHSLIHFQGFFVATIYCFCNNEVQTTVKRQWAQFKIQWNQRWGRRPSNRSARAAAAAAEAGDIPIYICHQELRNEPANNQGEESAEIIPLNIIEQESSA

T3: rat amylin 3(a) receptor (rat calcitonin(a) receptor + rat RAMP3) (rat, UniProt P32214 25-516; Q9JJ73 23-147)
T3 sequence (looked up) 1: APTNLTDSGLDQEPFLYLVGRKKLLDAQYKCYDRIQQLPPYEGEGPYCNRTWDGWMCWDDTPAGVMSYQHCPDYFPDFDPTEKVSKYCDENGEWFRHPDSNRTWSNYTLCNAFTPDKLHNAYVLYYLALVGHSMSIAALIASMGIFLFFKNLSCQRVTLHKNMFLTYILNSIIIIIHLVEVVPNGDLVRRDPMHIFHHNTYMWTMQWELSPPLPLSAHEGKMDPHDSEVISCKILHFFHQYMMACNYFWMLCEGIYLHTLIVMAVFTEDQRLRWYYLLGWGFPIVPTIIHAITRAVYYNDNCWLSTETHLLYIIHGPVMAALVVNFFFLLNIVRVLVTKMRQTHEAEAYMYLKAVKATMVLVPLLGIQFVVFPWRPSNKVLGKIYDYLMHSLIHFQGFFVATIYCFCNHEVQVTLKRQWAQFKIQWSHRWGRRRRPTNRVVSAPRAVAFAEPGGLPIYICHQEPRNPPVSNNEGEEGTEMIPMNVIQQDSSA
T3 sequence (looked up) 2: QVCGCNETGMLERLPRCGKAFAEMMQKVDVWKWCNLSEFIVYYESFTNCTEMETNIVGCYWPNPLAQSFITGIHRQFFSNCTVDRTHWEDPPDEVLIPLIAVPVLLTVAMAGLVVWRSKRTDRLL

T4: rat calcitonin (a) receptor (rat, UniProt P32214 25-516)
T4 sequence (looked up): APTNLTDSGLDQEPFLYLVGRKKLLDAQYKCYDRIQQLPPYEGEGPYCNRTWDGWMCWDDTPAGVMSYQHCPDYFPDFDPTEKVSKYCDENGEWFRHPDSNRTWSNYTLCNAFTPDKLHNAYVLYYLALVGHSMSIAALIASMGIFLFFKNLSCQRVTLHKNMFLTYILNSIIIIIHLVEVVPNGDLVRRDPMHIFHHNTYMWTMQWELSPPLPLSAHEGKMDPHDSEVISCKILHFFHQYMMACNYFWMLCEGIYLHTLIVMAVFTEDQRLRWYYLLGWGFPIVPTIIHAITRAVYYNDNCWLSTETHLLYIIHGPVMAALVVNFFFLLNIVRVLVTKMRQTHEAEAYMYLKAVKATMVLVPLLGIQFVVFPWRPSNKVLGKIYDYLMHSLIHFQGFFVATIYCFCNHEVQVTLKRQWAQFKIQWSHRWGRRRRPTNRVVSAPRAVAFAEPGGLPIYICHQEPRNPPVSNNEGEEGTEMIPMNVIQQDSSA

B1: N-alpha-[(S)-4-Carboxy-4-(19-carboxynonadecanoylamino)butyryl]-His-His-[His1,His3,Glu14,His17,His35]-pramlintide (peptide)
peptide: {C20 diacid-γGlu}-HHHCHTATCATQRLAEFLHHSSNNFGPILPPTNVGSHTY-NH2
modifications: disulfide 4-9
SMILES: CC[C@H](C)[C@H](NC(=O)[C@@H]1CCCN1C(=O)CNC(=O)[C@H](Cc1ccccc1)NC(=O)[C@H](CC(N)=O)NC(=O)[C@H](CC(N)=O)NC(=O)[C@H](CO)NC(=O)[C@H](CO)NC(=O)[C@H](Cc1c[nH]cn1)NC(=O)[C@H](Cc1c[nH]cn1)NC(=O)[C@H](CC(C)C)NC(=O)[C@H](Cc1ccccc1)NC(=O)[C@H](CCC(=O)O)NC(=O)[C@H](C)NC(=O)[C@H](CC(C)C)NC(=O)[C@H](CCCNC(=N)N)NC(=O)[C@H](CCC(N)=O)NC(=O)[C@@H](NC(=O)[C@H](C)NC(=O)[C@@H]1CSSC[C@H](NC(=O)[C@H](Cc2c[nH]cn2)NC(=O)[C@H](Cc2c[nH]cn2)NC(=O)[C@H](Cc2c[nH]cn2)NC(=O)CC[C@H](NC(=O)CCCCCCCCCCCCCCCCCCC(=O)O)C(=O)O)C(=O)N[C@@H](Cc2c[nH]cn2)C(=O)N[C@@H]([C@@H](C)O)C(=O)N[C@@H](C)C(=O)N[C@@H]([C@@H](C)O)C(=O)N1)[C@@H](C)O)C(=O)N[C@@H](CC(C)C)C(=O)N1CCC[C@H]1C(=O)N1CCC[C@H]1C(=O)N[C@H](C(=O)N[C@@H](CC(N)=O)C(=O)N[C@H](C(=O)NCC(=O)N[C@@H](CO)C(=O)N[C@@H](Cc1c[nH]cn1)C(=O)N[C@H](C(=O)N[C@@H](Cc1ccc(O)cc1)C(N)=O)[C@@H](C)O)C(C)C)[C@@H](C)O
B2: N-alpha-[(S)-4-Carboxy-4-(19-carboxynonadecanoylamino)butyryl]-[Glu14,Arg17,Pro37]-pramlintide (peptide)
peptide: KCNTATCATQRLAEFLRHSSNNFGPILPPTNVGSNTP
modifications: N-alpha acylated: C20diacid-gGlu; disulfide Cys2-Cys7; C-terminal amide
B3: N-alpha-[2-(2-{2-[2-(2-{2-[(S)-4-Carboxy-4-(19-carboxyheptadecanoylamino)butyrylamino]ethoxy}ethoxy)acetylamino]ethoxy}ethoxy)acetyl]-[His1,Glu14,His17,Arg18,Al … (peptide)
peptide: {19‑carboxyheptadecanoyl-γGlu-AEEA-AEEA}-HCNTATCATQRLAEFLHRATQELGPILPPTNVGSNTY-NH2
modifications: disulfide 2-7; reading uncertain; also: printed as N-alpha-[2-(2-{2-[2-(2-{2-[(S)-4-Carboxy-4-(19-carboxyheptadecanoylamino)butyrylamino]ethoxy}ethoxy)acetylamino]ethoxy}ethoxy)acetyl]-[His1,Glu14,His17,Arg18,Ala19,Thr20,Gln21,Glu22,Leu23]-pramlintide
B4: N-alpha-[(S)-4-Carboxy-4-(19-carboxynonadecanoylamino)butyryl]-Glu-[Arg1,Glu14,His17]-pramlintide (peptide)
peptide: {C20 diacid-γGlu}-ERCNTATCATQRLAEFLHHSSNNFGPILPPTNVGSNTY-NH2
modifications: disulfide 3-8
SMILES: CC[C@H](C)[C@H](NC(=O)[C@@H]1CCCN1C(=O)CNC(=O)[C@H](Cc1ccccc1)NC(=O)[C@H](CC(N)=O)NC(=O)[C@H](CC(N)=O)NC(=O)[C@H](CO)NC(=O)[C@H](CO)NC(=O)[C@H](Cc1c[nH]cn1)NC(=O)[C@H](Cc1c[nH]cn1)NC(=O)[C@H](CC(C)C)NC(=O)[C@H](Cc1ccccc1)NC(=O)[C@H](CCC(=O)O)NC(=O)[C@H](C)NC(=O)[C@H](CC(C)C)NC(=O)[C@H](CCCNC(=N)N)NC(=O)[C@H](CCC(N)=O)NC(=O)[C@@H](NC(=O)[C@H](C)NC(=O)[C@@H]1CSSC[C@H](NC(=O)[C@H](CCCNC(=N)N)NC(=O)[C@H](CCC(=O)O)NC(=O)CC[C@H](NC(=O)CCCCCCCCCCCCCCCCCCC(=O)O)C(=O)O)C(=O)N[C@@H](CC(N)=O)C(=O)N[C@@H]([C@@H](C)O)C(=O)N[C@@H](C)C(=O)N[C@@H]([C@@H](C)O)C(=O)N1)[C@@H](C)O)C(=O)N[C@@H](CC(C)C)C(=O)N1CCC[C@H]1C(=O)N1CCC[C@H]1C(=O)N[C@H](C(=O)N[C@@H](CC(N)=O)C(=O)N[C@H](C(=O)NCC(=O)N[C@@H](CO)C(=O)N[C@@H](CC(N)=O)C(=O)N[C@H](C(=O)N[C@@H](Cc1ccc(O)cc1)C(N)=O)[C@@H](C)O)C(C)C)[C@@H](C)O

Assays:
Test in all cases: cell-based or functional assay
[1] = target: T1, human amylin 3(a) receptor (human …)
[2] = target: T2, human calcitonin (a) receptor
[3] = target: T3, rat amylin 3(a) receptor (rat …)
[4] = target: T4, rat calcitonin (a) receptor

Binder | Amylin receptor human EC50 [1] | CTa receptor human EC50 [2] | Amylin receptor rat EC50 [3] | CTa receptor rat EC50 [4]
B1 | 603 pM | 543 pM | 401 pM | 4870 pM
B2 |  |  | 348 pM | 287 pM
B3 | 385 pM | 492 pM |  | 
B4 | 119 pM | 184 pM |  | 
